Experimental data taken from PMC11702627.

Molecular target: T1, WT 4Ig-B7-H3-meGFP (and WT 4Ig-B7-H3-mCherry as the second copy) (human), Q5ZPR3
T1 chain: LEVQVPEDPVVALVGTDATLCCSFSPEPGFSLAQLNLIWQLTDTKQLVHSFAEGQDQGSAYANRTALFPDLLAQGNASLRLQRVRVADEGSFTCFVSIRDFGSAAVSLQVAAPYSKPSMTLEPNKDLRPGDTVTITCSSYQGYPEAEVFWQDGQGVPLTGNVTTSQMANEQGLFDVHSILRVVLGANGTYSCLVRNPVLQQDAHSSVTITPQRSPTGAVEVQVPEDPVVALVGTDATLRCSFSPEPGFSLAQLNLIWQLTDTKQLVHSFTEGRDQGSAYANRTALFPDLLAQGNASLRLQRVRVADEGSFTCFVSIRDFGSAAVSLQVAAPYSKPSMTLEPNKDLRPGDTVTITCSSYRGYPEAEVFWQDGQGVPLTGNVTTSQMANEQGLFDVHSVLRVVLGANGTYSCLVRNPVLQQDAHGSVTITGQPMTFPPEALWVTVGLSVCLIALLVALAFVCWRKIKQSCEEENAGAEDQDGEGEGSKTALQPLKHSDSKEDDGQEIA
Assay: FRET or BRET
Settings: remark: other sources report otherwise

- abundance of dimeric complexes (1.3 ns lifetime population): 65%
- dimeric abundance (with MBCD 0.1 ug, 10 minutes): 26%
- dimeric abundance (without MBCD): 48%
- dimeric lifetime abundance (with Vector-mCherry): 56%
B1: WT 4Ig-B7-H3-meGFP (and WT 4Ig-B7-H3-mCherry as the second copy), Q5ZPR3 29-534 (natural protein)
chain: LEVQVPEDPVVALVGTDATLCCSFSPEPGFSLAQLNLIWQLTDTKQLVHSFAEGQDQGSAYANRTALFPDLLAQGNASLRLQRVRVADEGSFTCFVSIRDFGSAAVSLQVAAPYSKPSMTLEPNKDLRPGDTVTITCSSYQGYPEAEVFWQDGQGVPLTGNVTTSQMANEQGLFDVHSILRVVLGANGTYSCLVRNPVLQQDAHSSVTITPQRSPTGAVEVQVPEDPVVALVGTDATLRCSFSPEPGFSLAQLNLIWQLTDTKQLVHSFTEGRDQGSAYANRTALFPDLLAQGNASLRLQRVRVADEGSFTCFVSIRDFGSAAVSLQVAAPYSKPSMTLEPNKDLRPGDTVTITCSSYRGYPEAEVFWQDGQGVPLTGNVTTSQMANEQGLFDVHSVLRVVLGANGTYSCLVRNPVLQQDAHGSVTITGQPMTFPPEALWVTVGLSVCLIALLVALAFVCWRKIKQSCEEENAGAEDQDGEGEGSKTALQPLKHSDSKEDDGQEIA
